Target: Pfs25 (Plasmodium falciparum) (UniProt P13829)
Assay: cell-based or functional assay

Sequence of UniProt P13829 (P13829 17-196): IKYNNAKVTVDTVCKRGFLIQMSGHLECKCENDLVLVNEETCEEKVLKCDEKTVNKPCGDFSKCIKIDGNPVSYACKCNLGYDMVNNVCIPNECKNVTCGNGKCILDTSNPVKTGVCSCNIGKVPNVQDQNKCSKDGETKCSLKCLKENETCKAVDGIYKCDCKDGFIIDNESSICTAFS

anti-Pfs25 mAb 4B7 (antibody) gave a % inhibition estimate (standard membrane feeding assay, SMFA) of 93.8%.

From patent US20210324015A1
